The values below come from patent publication US20240350653A1 (JOINT STOCK COMPANY GENERIUM, published 2024).

Assay [1] addresses Human Insulin Receptor protein fragment (Abcam cat #ab200510) (human) (UniProt P06213). The assay can be described thus: ELISA on human insulin receptor fragment, relative to 83-14 mAb. A general note: In an ELISA, binding on a coated surface is turned into a signal by an enzyme label.
For assay [2] the target is unchanged. As to the kind of experiment: ELISA on human insulin receptor fragment.
Assay [3] concerns the target mouse insulin receptor (mInsR, R&D Systems, Inc., Cat. No. 7544-MR) (mouse) (UniProt P15208). As to the kind of experiment: ELISA on mouse insulin receptor.
Assay [4] addresses T1, Human Insulin Receptor protein fragment (Abcam cat #ab200510) (human, UniProt P06213-2 28-944, limits assumed).
T1 construct: domain: extracellular domain of the alpha subunit; Bought fragment; also called HIR; extracellular domain of the alpha subunit of the human insulin receptor
As to the kind of experiment: ELISA on human insulin receptor fragment, relative to 83-14 mAb.

For assay [5], the target named is T2, mouse insulin receptor (mInsR, R&D Systems, Inc., Cat. No. 7544-MR) (mouse, UniProt P15208 28-946, limits assumed).
T2 construct: extracellular domain; Bought protein; also called extracellular domain of the mouse insulin receptor
The assay can be described thus: ELISA on mouse insulin receptor.

Assay [6] concerns the target T1, Human Insulin Receptor protein fragment …. The assay can be described thus: ELISA on human insulin receptor fragment.

What is called EC50 is the concentration needed to bring the measured effect to its halfway point.

In assay [1], HIR-MAB-IDS (antibody) came in with a Receptor binding from antibody 83-14 mAb, % of 126%. The EC50 in assay [2] was 0.0262 µg/mL; in assay [3] it was above 0.8 µg/mL.
Consider “Mouse Anti-Human Insulin Receptor Clone 83-14 mAb (Cell sciences, cat# MAI1) (antibody)”, for which, in assay [1], the Receptor binding from antibody 83-14 mAb, % was determined as 100%. Also, the EC50 in assay [2] is 0.0331 µg/mL; in assay [3] it was above 0.8 µg/mL.
The matching figures for “INSR/Insulin Receptor alpha Antibody 83-14 (Life technologies, cat#AHR0221)”: 102%, 0.0321 µg/mL and above 0.8 µg/mL.

B1: HIR-FAB-IDS (SEQ ID NO: 2 and SEQ ID NO: 5) (Fab)
light: DIQMTQSPSSLSASLGERVSLTCRASQDIGGNLYWLQQGPDGTIKRLIYATSSLDSGVPKRFSGSRSGSDYSLTISSLESEDFVDYYCLQYSSSPWTFGGGTKMEIKRTVAAPSVFIFPPSDEQLKSGTASVVCLLNNFYPREAKVQWKVDNALQSGNSQESVTEQDSKDSTYSLSSTLTLSKADYEKHKVYACEVTHQGLSSPVTKSFNRGEC
heavy: QVQLQQSGPELVKPGALVKISCKASGYTFTNYDIHWVKQRPGQGLEWIGWIYPGDGSTKYNEKFKGKATLTADKSSSTAYMHLSSLTSEKSAVYFCAREWAYWGQGTLVTVSAASTKGPSVFPLAPSSKSTSGGTAALGCLVKDYFPEPVTVSWNSGALTSGVHTFPAVLQSSGLYSLSSVVTVPSSSLGTQTYICNVNHKPSNTKVDKKVEPKSCDKTHGGGGSGGGGSGGGGSSETQANSTTDALNVLLIIVDDLRPSLGCYGDKLVRSPNIDQLASHSLLFQNAFAQQAVCAPSRVSFLTGRRPDTTRLYDFNSYWRVHAGNFSTIPQYFKENGYVTMSVGKVFHPGISSNHTDDSPYSWSFPPYHPSSEKYENTKTCRGPDGELHANLLCPVDVLDVPEGTLPDKQSTEQAIQLLEKMKTSASPFFLAVGYHKPHIPFRYPKEFQKLYPLENITLAPDPEVPDGLPPVAYNPWMDIRQREDVQALNISVPYGPIPVDFQRKIRQSYFASVSYLDTQVGRLLSALDDLQLANSTIIAFTSDHGWALGEHGEWAKYSNFDVATHVPLIFYVPGRTASLPEAGEKLFPYLDPFDSASQLMEPGRQSMDLVELVSLFPTLAGLAGLQVPPRCPVPSFHVELCREGKNLLKHFRFRDLEEDPYLPGNPRELIAYSQYPRPSDIPQWNSDKPSLKDIKIMGYSIRTIDYRYTVWVGFNPDEFLANFSDIHAGELYFVDSDPLQDHNMYNDSQGGDLFQLLMP
notes: Variant of the Fab-iduronate-2-sulfatase fusion
On to B1, for which the “Receptor binding from antibody 83-14 mAb, %” value in assay [4] is 66%. In addition, in assay [5], the EC50 was above 0.8 µg/mL and the “Receptor binding, %” value was 0%. In addition, in assay [6], the EC50 came out at 0.0503 µg/mL.
